From patent US20230057012A1, “TGFB INHIBITORS AND USE THEREOF” (Scholar Rock, Inc., priority 2020, published 2023)

Molecular target: antigen of FIG. 2 (not named)
Assay: SPR Biacore, Fab (FIG. 2)

B1: Ab46 Fab (Fab, V domains shown)
VH: EVQLLESGGGLVQPGGSLRLSCAASGFTFADYAMTWVRQAPGKGLEWVSAISGSGAATYFADSVKGRFTISRDNSKNTLYLQMNSLRAEDTAVYYCARVSSGHWDYDYWGQGTLVTVSS
VL: DIQLTQSPSSLSASVGDRVTITCRASQSISSYLNWYQQKPGKAPKLLIYAASGLESGVPSRFSGSGSGTDFTLTISSLQPEDFATYYCQQTYGVPLTFGGGTKVEIK
times longer bound than the reference antibody: > 50 fold
